Laboratory results reported in article PMC10500825, “TGFβ1-RCN3-TGFBR1 loop facilitates pulmonary fibrosis by orchestrating fibroblast activation” (Respiratory Research, 2023).

Target: T1, recombinant human EZH2 protein, biotinylated (human, UniProt Q15910 1-746, biotin (Biotinylation Kit, Thermo Scientific 21329))
T1 construct: Enhancer of zeste homolog 2 (EZH2), human recombinant protein, Origene TP302054; check the vendor's sheet; also called rhEZH2; source: bought: Origene (TP302054), biotinylated and desalted
T1 sequence (Q15910 whole entry): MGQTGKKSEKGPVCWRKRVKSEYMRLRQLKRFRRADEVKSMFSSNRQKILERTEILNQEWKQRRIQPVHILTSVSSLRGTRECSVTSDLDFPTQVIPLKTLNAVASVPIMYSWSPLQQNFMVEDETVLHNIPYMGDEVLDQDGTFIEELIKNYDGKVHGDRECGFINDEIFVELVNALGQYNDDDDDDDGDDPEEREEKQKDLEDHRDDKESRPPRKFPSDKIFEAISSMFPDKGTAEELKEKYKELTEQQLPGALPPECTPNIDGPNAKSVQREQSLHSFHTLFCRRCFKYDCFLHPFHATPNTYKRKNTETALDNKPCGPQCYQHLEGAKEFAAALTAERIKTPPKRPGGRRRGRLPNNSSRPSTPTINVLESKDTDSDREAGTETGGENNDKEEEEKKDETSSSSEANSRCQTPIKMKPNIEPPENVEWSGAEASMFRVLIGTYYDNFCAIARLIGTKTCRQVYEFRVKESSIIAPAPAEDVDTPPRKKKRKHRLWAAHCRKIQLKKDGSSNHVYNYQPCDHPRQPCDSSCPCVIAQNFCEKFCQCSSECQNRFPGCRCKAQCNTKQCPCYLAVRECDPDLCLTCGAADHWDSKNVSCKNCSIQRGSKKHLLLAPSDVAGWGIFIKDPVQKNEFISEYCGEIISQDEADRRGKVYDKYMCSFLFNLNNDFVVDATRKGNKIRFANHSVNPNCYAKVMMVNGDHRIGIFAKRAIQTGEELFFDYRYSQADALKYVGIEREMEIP
Assay: BLI; OctetRED; his-tagged rhRcn3 (5 µg/ml) immobilised on NTA biosensors; biotinylated rhEZH2 at 262.3, 131.1, 65.56 and 32.78 µg/ml in binding buffer; association and dissociation for 10 min at 25 °C
Details: both partners purified

B1: recombinant human Rcn3 with his-tag (natural protein, UniProt Q96D15 21-328, looked up)
chain: KPSPDAGPHGQGRVHQAAPLSDAPHDDAHGNFQYDHEAFLGREVAKEFDQLTPEESQARLGRIVDRMDRAGDGDGWVSLAELRAWIAHTQQRHIRDSVSAAWDTYDTDRDGRVGWEELRNATYGHYAPGEEFHDVEDAETYKKMLARDERRFRVADQDGDSMATREELTAFLHPEEFPHMRDIVIAETLEDLDRNKDGYVQVEEYIADLYSAEPGEEEPAWVQTERQQFRDFRDLNKDGHLDGSEVGHWVLPPAQDQPLVEANHLLHESDTDKDGRLSKAEILGNWNMFVGSQATNYGEDLTRHHDEL
notes: Reticulocalbin 3 (RCN3), human recombinant protein, Abcam ab276552; Construct limits are those of the vendor's product; also called rhRcn3; hrRcn3; source: bought: Abcam (ab276552)
Kd: 1540 nM
